Experimental data as given in paper PMC4973471 (Nature structural & molecular biology, 2016).

How the values were obtained:
crystal structure = molecular target: the molecule itself; assay: crystal structure
HSF2 DBD = HSF2 DBD (Homo sapiens, UniProt Q03933 8-115); assay: X-ray crystallography

| Binder | binding result (crystal structure) | binding result (HSF2 DBD) |
| --- | --- | --- |
| human HSF2 DNA-binding domain (amino acids 8–115) (domain or fragment, UniProt Q03933 8-115, looked up) PAFLSKLWTLVEETHTNEFITWSQNGQSFLVLDEQRFAKEILPKYFKHNNMASFVRQLNMYGFRKVVHIDSGIVKQERDGPVEFQHPYFKQGQDDLLENIKRKVSSSK | binds |  |
| 2-site HSE (dsDNA) DNA 1: GGTTCTAGAACC DNA 2: GGTTCTAGAACC |  | binds |
